No end group written: not given here. *: point of attachment. Biotin = O=C1N[C@H]2[C@H](CS[C@H]2CCCCC(=O)*)N1
Experiments:
[1] = molecular target: T1, Human CD40 on cells (Raji, Daudi, IM-9) (human, UniProt P25942 21-277); assay: flow cytometry on Raji cells, anti-Myc staining (axis Myc); number not labelled as MFI on the sheet; 2nd Ab only -30.7
T1 construct: whole, on cells; also called cell surface CD40; hCD40

[2] = molecular target: T2, biotin-labeled c-Myc peptide (Biotin-GGGGSEQKLISEEDL); assay: flow cytometry of human T cells 8 days after transduction, stained with biotin-labeled c-Myc peptide plus streptavidin-PE; axis Myc CAR
T2 construct: It is not the BSA conjugate m23; also called biotin c-Myc peptide; stain for Myc CAR
T2 peptide: Biotin-GGGGSEQKLISEEDL
Description: After 24 h, the activated T cells were harvested, resuspended (1×10⁶/ml) in a TM media containing human IL-7, human IL-15, and the lentiviral concentrate, and cultured for two days for CAR transduction. After washing the transduced T cells, the cells were expanded in TM media with human IL-7 and human IL-15 for eight days before use. CAR expression on the cell surface was determined by flow cytometry using biotin-labeled 6×His peptide (Biotin-[…]; Peptron) for hHis CAR-T or biotin-labeled c-Myc peptide (Biotin-[…]; Peptron) for hMyc CAR-T and PE-labeled streptavidin (Biolegend).

[3] = molecular target: T3, BSA-conjugated c-Myc peptide (also: conjugated to BSA by thiol-maleimide reaction, thiol residue not given here); assay: indirect ELISA after bio-panning against BSA-conjugated c-Myc peptide
T3 construct: also called the antigen
T3 peptide: EQKLISEEDL

[4] = molecular target: T4, Biotin conjugated 6×His peptide (also: biotin conjugated, site not given here); assay: SPR (Biacore 8K): biotin 6×His peptide captured on immobilized streptavidin, scFv injected in 2-fold dilutions (6 curves)
T4 construct: also called histidine hexamer peptide
T4 peptide: HHHHHH
Source text: (§1) Since the murine anti-His antibody had decreased binding affinity against 6×His peptide after humanization, affinity maturation was further performed to increase it and chicken anti-CD40 antibody (2B1) was only humanized. Serial dilution antibodies at 6 concentrations were used to characterize the kinetics of antibody-antigen binding by SPR. […] So, there was not affinity loss against their antigen after humanization (FIG. 22B).
(§2) A Biacore 8K SPR system (Cytiva) equipped with CM5 sensor chip (Cytiva) was used to generate binding kinetic rate and affinity constants. To prepare the capture surfaces for anti-His antibodies, streptavidin was immobilized, followed by biotin conjugated 6×His peptide was captured. The antibodies were 2-fold serial diluted with 1×PBS, then injected at a flow rate of 30 μL/min for 3 minutes, allowing 10 minutes dissociation phase. The surface was regenerated using 10 mM glycine, pH 1.5. The kinetics were analyzed using Biacore 8K evaluation software, version 1.0 (Cytiva). In case of anti-CD40 antibodies, anti-human Fc IgG (Jackson ImmunoResearch) was immobilized, and then CD40-hFc protein (Acro Biosystems, #CD0-H5253) was captured. The antibodies were 2-fold serial diluted with HBS-EP+ buffer (10 mm HEPES, 150 mm sodium chloride, 3 mm EDTA, 0.05% Polysorbate 20), then injected at a flow rate of 30 μL/min for 4 minutes, allowing >15 minutes dissociation phase.

[5] = molecular target: T5, CD40-hFc protein (Acro Biosystems, #CD0-H5253) (UniProt P25942 21-193); assay: SPR (Biacore 8K): CD40-hFc captured on immobilized anti-human Fc IgG, scFv injected in 2-fold dilutions (6 curves)
T5 construct: Bought protein
T5 sequence (P25942 21-193 limits assumed): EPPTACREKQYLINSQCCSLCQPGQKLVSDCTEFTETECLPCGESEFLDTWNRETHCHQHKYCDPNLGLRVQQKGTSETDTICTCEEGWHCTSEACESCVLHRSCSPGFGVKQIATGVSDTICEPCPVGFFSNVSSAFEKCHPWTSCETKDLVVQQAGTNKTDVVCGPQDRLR
Source text: as §1, §2

T1 sequence (P25942 21-277): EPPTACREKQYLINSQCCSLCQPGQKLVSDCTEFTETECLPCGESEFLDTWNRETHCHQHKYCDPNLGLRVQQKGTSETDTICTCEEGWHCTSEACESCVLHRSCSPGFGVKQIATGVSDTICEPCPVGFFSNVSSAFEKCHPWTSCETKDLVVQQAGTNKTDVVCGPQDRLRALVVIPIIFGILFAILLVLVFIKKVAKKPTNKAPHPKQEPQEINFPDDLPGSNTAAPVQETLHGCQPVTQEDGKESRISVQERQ

B1: 2B1-Ck-L1-Myc (scFv)
scFv: QAALTQPSSVSANPGETVKITCSGGDSYAGSYYYGWFQQKAPGSAPVTVIYYNDKRPSDIPSRFSGSTSGSTSTLTITGVQAEDEAVYYCGSIDTSSGTGIFGAGTTLTVLGQSSRSSGGGGSSGGGGSAVTLDESGGGLQTPGGALSLVCKGSGFTFSSYQMFWVRQAPGKGLEYVAEISGSGLSTWYAPAVKGRATISRDNGQSTVRLQLNNLRAEDTGTYYCAKAAGSCGVGTCAGGIVDGIDAWGHGTEVIVSSTSGQAGQRTVAAPSVFIFPPSDEQLKSGTASVVCLLNNFYPREAKVQWKVDNALQSGNSQESVTEQDSKDSTYSLSSTLTLSKADYEKHKVYACEVTHQGLSSPVTKSFNRGESGGGGSEQKLISEEDL
In the case of B1, the MFI [1] is reported as 1520.

B2: hMyc (3A6) CAR (3A6-BBz), on human T cells (other)
chain: LTQPSSVSANLGGTVKITCSGGGGSDDGSYYYSWHQQKSPGSAPVTVIYENNNRPSDIPSRFSGSKSGSTATLTITGVQAEDEAVYYCGSRDSSYVDYVGIFGAGTTLTVLGQSSRSSGGGGSSGGGGSAVTLDESGGGLQTPGRALSLVCKASGFTFSSYDMAWVRQEPGKGLEYVASISRSGRYTRYGPAVKGRATISRDNGQSTVRLQLNNLRAEDTATYFCTRGGAVSIDTWGHGTEVIVSSTTTPAPRPPTPAPTIASQPLSLRPEACRPAAGGAVHTRGLDFACDIYIWAPLAGTCGVLLLSLVITLYCKRGRKKLLYIFKQPFMRPVQTTQEEDGCSCRFPEEEEGGCELRVKFSRSADAPAYKQGQNQLYNELNLGRREEYDVLDKRRGRDPEMGGKPRRKNPQEGLYNELQKDKMAEAYSEIGMKGERRRGKGHDGLYQGLSTATKDTYDALHMQALPPR
notes: also called hMyc CAR-T cells (3A6)
For B2, the “number over the gate bar (percent of cells in the gate)” value [2] was 38.9.

B3: 2B1-L1-Myc-Ck (scFv)
scFv: QAALTQPSSVSANPGETVKITCSGGDSYAGSYYYGWFQQKAPGSAPVTVIYYNDKRPSDIPSRFSGSTSGSTSTLTITGVQAEDEAVYYCGSIDTSSGTGIFGAGTTLTVLGQSSRSSGGGGSSGGGGSAVTLDESGGGLQTPGGALSLVCKGSGFTFSSYQMFWVRQAPGKGLEYVAEISGSGLSTWYAPAVKGRATISRDNGQSTVRLQLNNLRAEDTGTYYCAKAAGSCGVGTCAGGIVDGIDAWGHGTEVIVSSTSGQAGQGGGGSEQKLISEEDLRTVAAPSVFIFPPSDEQLKSGTASVVCLLNNFYPREAKVQWKVDNALQSGNSQESVTEQDSKDSTYSLSSTLTLSKADYEKHKVYACEVTHQGLSLPVTKSFNRGES
With B3 the MFI [1] was 2400.

B4: Anti-Myc scFv clone 8A9 (scFv)
scFv: QAALTQPSSVSANPGETVEITCSGGSSGYYGWHQQKSPGSAPVTVIYENTNRPSDIPSRFSGSKSGSTATLTITGVQADDEAVYFCGSYDSSSASGIFGAGTTLTVLGQSSRSSGGGGSSGGGGSAVTLDESGGGLQTPGGGLSLVCKASGFTFSSYDMAWVRQEPGKGLEYVASISRSGRYTRYGPAVKGRATISRDNGQSTVRLQLNNLRAEDTATYFCTRGGAVSIDTWGHGTEVIVSS
notes: Selected from a chicken scFv phage library by indirect ELISA
B4: binds [3].

B5: Anti-Myc scFv clone 7A1 (scFv)
scFv: QAALTQPSSVSVNPGETVKITCSGGGSSSYYGWYQQKSPGSAPVTLIYQNTNRPSNIPSRFSGSTSGSTGTLTITGVQAEDEAVYFCGSRDSSGDGIFGAGTTLTVLGQSSRSSGGGGSSGGGGSAVTLDESGGGLQTPGRALSLVCKASGFTFSSYDMAWVRQEPGKGLEYVASISRSGRYTRYGPAVKGRATISRDNGQSTVRLQLNNLRAEDTATYFCTRGGAVSIDTWGHGTEVIVSS
notes: as for B4
B5: binds [3].

B6: 2B1-Ck-L2-Myc (scFv)
scFv: QAALTQPSSVSANPGETVKITCSGGDSYAGSYYYGWFQQKAPGSAPVTVIYYNDKRPSDIPSRFSGSTSGSTSTLTITGVQAEDEAVYYCGSIDTSSGTGIFGAGTTLTVLGQSSRSSGGGGSSGGGGSAVTLDESGGGLQTPGGALSLVCKGSGFTFSSYQMFWVRQAPGKGLEYVAEISGSGLSTWYAPAVKGRATISRDNGQSTVRLQLNNLRAEDTGTYYCAKAAGSCGVGTCAGGIVDGIDAWGHGTEVIVSSTSGQAGQRTVAAPSVFIFPPSDEQLKSGTASVVCLLNNFYPREAKVQWKVDNALQSGNSQESVTEQDSKDSTYSLSSTLTLSKADYEKHKVYACEVTHQGLSSPVTKSFNRGESGGGGSGGGSEQKLISEEDL
B6 was tested, and the MFI [1] was 2070.

B7: Murine anti-His scFv (scFv)
scFv: DILMTQTPSSLPVSLGDQASISCRSSQSIVHSNGNTYLEWYLQKPGQSPKLLIYKVSNRFSGVPDRFSGSGSGTDFTLKISRVEAEDLGVYYCFQGSHVPFTFGSGTKLEIKRGGGGSGGGGSGGGGSGGGGSQVQLQQSGPEDVKPGASVKISCKASGYTFTDYYMNWVKQSPGKGLEWIGDINPNNGGTSYNQKFKGRATLTVDKSSSTAYMELRSLTSEDSSVYYCESQSGAYWGQGTTVTVSA
notes: also called anti-His (3D5M) scFv
B7 gave a Kd [4] of 36.6 nM, a koff [4] of 0.00547 s⁻¹ and a kon [4] of 149000 M⁻¹ s⁻¹.

B8: 2B1-Cκ-Myc (2B1-Cκ linked with C-terminal Myc peptide) (scFv)
scFv: QAALTQPSSVSANPGETVKITCSGGDSYAGSYYYGWFQQKAPGSAPVTVIYYNDKRPSDIPSRFSGSTSGSTSTLTITGVQAEDEAVYYCGSIDTSSGTGIFGAGTTLTVLGQSSRSSGGGGSSGGGGSAVTLDESGGGLQTPGGALSLVCKGSGFTFSSYQMFWVRQAPGKGLEYVAEISGSGLSTWYAPAVKGRATISRDNGQSTVRLQLNNLRAEDTGTYYCAKAAGSCGVGTCAGGIVDGIDAWGHGTEVIVSSTSGQAGQRTVAAPSVFIFPPSDEQLKSGTASVVCLLNNFYPREAKVQWKVDNALQSGNSQESVTEQDSKDSTYSLSSTLTLSKADYEKHKVYACEVTHQGLSSPVTKSFNRGESEQKLISEEDL
notes: also called 2B1-Ck-Myc; Myc peptide-tagged anti-hCD40 adaptor
Binder B8 has an MFI [1] of 1860.

B9: hMyc (8A9) CAR (8A9-BBz), on human T cells (other)
chain: LTQPSSVSANPGETVEITCSGGSSGYYGWHQQKSPGSAPVTVIYENTNRPSDIPSRFSGSKSGSTATLTITGVQADDEAVYFCGSYDSSSASGIFGAGTTLTVLGQSSRSSGGGGSSGGGGSAVTLDESGGGLQTPGGGLSLVCKASGFTFSSYDMAWVRQEPGKGLEYVASISRSGRYTRYGPAVKGRATISRDNGQSTVRLQLNNLRAEDTATYFCTRGGAVSIDTWGHGTEVIVSSTTTPAPRPPTPAPTIASQPLSLRPEACRPAAGGAVHTRGLDFACDIYIWAPLAGTCGVLLLSLVITLYCKRGRKKLLYIFKQPFMRPVQTTQEEDGCSCRFPEEEEGGCELRVKFSRSADAPAYKQGQNQLYNELNLGRREEYDVLDKRRGRDPEMGGKPRRKNPQEGLYNELQKDKMAEAYSEIGMKGERRRGKGHDGLYQGLSTATKDTYDALHMQALPPR
notes: also called hMyc CAR-T cells (8A9)
In the case of B9, the “number over the gate bar (percent of cells in the gate)” value [2] is reported as 21.9.

B10: Chicken anti-CD40 scFv (2B1) (scFv)
scFv: QAALTQPSSVSANPGETVKITCSGGDSYAGSYYYGWFQQKAPGSAPVTVIYYNDKRPSDIPSRFSGSTSGSTSTLTITGVQAEDEAVYYCGSIDTSSGTGIFGAGTTLTVLGQSSRSSGGGGSSGGGGSAVTLDESGGGLQTPGGALSLVCKGSGFTFSSYQMFWVRQAPGKGLEYVAEISGSGLSTWYAPAVKGRATISRDNGQSTVRLQLNNLRAEDTGTYYCAKAAGSCGVGTCAGGIVDGIDAWGHGTEVIVSS
notes: also called parental antibody of the humanized anti-CD40 scFv; 2B1 scFv
Binder B10 has a Kd [5] of 2.83 nM, a koff [5] of 0.00588 s⁻¹ and a kon [5] of 2.08e+06 M⁻¹ s⁻¹.

B11: Anti-Myc scFv clone 3A6 (scFv)
scFv: QAALTQPSSVSANLGGTVKITCSGGGGSDDGSYYYSWHQQKSPGSAPVTVIYENNNRPSDIPSRFSGSKSGSTATLTITGVQAEDEAVYYCGSRDSSYVDYVGIFGAGTTLTVLGQSSRSSGGGGSSGGGGSAVTLDESGGGLQTPGRALSLVCKASGFTFSSYDMAWVRQEPGKGLEYVASISRSGRYTRYGPAVKGRATISRDNGQSTVRLQLNNLRAEDTATYFCTRGGAVSIDTWGHGTEVIVSS
notes: Selected from a chicken scFv phage library by indirect ELISA; Later produced with an 8×His tag
B11: binds [3].

B12: hMyc (7A1) CAR (7A1-BBz), on human T cells (other)
chain: LTQPSSVSVNPGETVKITCSGGGSSSYYGWYQQKSPGSAPVTLIYQNTNRPSNIPSRFSGSTSGSTGTLTITGVQAEDEAVYFCGSRDSSGDGIFGAGTTLTVLGQSSRSSGGGGSSGGGGSAVTLDESGGGLQTPGRALSLVCKASGFTFSSYDMAWVRQEPGKGLEYVASISRSGRYTRYGPAVKGRATISRDNGQSTVRLQLNNLRAEDTATYFCTRGGAVSIDTWGHGTEVIVSSTTTPAPRPPTPAPTIASQPLSLRPEACRPAAGGAVHTRGLDFACDIYIWAPLAGTCGVLLLSLVITLYCKRGRKKLLYIFKQPFMRPVQTTQEEDGCSCRFPEEEEGGCELRVKFSRSADAPAYKQGQNQLYNELNLGRREEYDVLDKRRGRDPEMGGKPRRKNPQEGLYNELQKDKMAEAYSEIGMKGERRRGKGHDGLYQGLSTATKDTYDALHMQALPPR
notes: also called hMyc CAR-T cells (7A1)
In the case of B12, the “number over the gate bar (percent of cells in the gate)” value [2] is reported as 19.

Reference: patent US20250018037A1 (SEOUL NATIONAL UNIVERSITY R AND DB FOUNDATION, published 2025)
